According to patent publication US8642729B2, “Opiorphin peptide derivatives as potent inhibitors of enkephalin-degrading ectopeptidases” (Institut Pasteur, priority 2008, dated 2014):
Blank lines part the entries; values can stand above or below the molecule they belong to. Non-standard residues stand in square brackets, D forms with d. No end group written: not given here. 12Ado = NCCCCCCCCCCCC(=O)O; Ahx = NCCCCCC(=O)O

Key:
recombinant human AP-N = biological target: T1, recombinant human AP-N (Homo sapiens, UniProt P15144); experiment: AP-N-ectopeptidase activity, Ala-Mca substrate; format: biochemical; details: for inhibitory potency towards hAP-N as compared to Opiorphin-QRFSR native peptide (in words): relative to native peptide
T1 construct: devoid of their respective N-terminal cytosol and transmembrane segment; purchased R&D Systems
T1 sequence (P15144 33-967 limits assumed): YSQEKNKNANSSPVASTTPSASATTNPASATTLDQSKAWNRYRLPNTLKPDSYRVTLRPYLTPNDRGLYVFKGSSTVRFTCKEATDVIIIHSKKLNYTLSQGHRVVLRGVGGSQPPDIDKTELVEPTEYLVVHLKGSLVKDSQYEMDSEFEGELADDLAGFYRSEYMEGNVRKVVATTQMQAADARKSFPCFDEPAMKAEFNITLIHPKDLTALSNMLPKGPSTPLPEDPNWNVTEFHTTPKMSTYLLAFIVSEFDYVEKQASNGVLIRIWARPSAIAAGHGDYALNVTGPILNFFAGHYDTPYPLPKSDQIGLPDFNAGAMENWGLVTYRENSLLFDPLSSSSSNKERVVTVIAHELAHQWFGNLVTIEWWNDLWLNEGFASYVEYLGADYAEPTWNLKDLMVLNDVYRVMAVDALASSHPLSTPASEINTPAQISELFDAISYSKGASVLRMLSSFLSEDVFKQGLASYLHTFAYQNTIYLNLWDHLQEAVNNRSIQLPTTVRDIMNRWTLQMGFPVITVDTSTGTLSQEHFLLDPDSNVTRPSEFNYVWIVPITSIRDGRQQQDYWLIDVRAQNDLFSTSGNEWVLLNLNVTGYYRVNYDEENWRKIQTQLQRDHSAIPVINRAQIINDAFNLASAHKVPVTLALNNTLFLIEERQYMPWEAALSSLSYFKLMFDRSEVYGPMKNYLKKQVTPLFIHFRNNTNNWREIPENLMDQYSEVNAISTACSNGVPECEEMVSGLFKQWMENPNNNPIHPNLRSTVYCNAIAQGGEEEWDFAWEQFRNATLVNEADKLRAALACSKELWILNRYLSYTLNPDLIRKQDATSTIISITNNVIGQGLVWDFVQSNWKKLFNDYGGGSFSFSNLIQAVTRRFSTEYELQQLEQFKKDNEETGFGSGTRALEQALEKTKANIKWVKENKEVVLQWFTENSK
Description: Formal kinetic analysis was performed for each assay using real-time fluorescence monitoring of specific substrate hydrolysis.
Recombinant human NEP and recombinant human AP-N (devoid of their respective N-terminal cytosol and transmembrane segment) that were purchased from R&D Systems, were used as pure source of peptidase.
FRET is the distance-dependant transfer of energy from a donor fluorophore (Abz=ortho-aminobenzoyl or Mca=7-methoxycoumarin-4-yl-acetyl) to an acceptor fluorophore (DnpOH=2,4-dinitrophenyl or EDDnp=2,4-dinitrophenyl ethylenediamine). • L-alanine-Mca, Ala-Mca, a fluorogenic substrate for measuring aminopeptidase activity was purchased from Sigma.
(§1) According to conditions of initial velocity measurement: the time, pH and temperature of incubation as well as enzyme and substrate concentrations were defined for each assay. Hydrolysis of substrates was measured by real-time monitoring their metabolism rate by the two peptidases in the presence and absence of tested inhibitory compound (concentrations ranging from 1 to 50 μM). These were added to the preincubation medium. The background rate of substrate autolysis representing the fluorescent signal obtained in the absence of enzyme was subtracted to calculate the initial velocities in RFU (Relative Fluorescent Unit)/min.
Measurement of AP-N-Ectopeptidase Activity Using Ala-Mca Substrate.
Using black half-area 96 well microplate the standard reaction consisted of enzyme (4 ng) in 100 mM Tris-HCl pH 7.0 (100 μl final volume).
(§2) Compounds were tested in triplicate at 50 μM final concentration.

human NEP = biological target: T2, human NEP (Homo sapiens, UniProt P08473); experiment: Screening of Opiorphin peptide-derivatives on hNEP (endopeptidase and carboxydipeptidase activities); format: biochemical; details: for inhibitory preference / dual inhibition, human NEP versus human AP-N (in words): hNEP endopeptidase and carboxydipeptidase activities versus hAP-N; for inhibitory potency towards hNEP as compared to Opiorphin-QRFSR native peptide (in words): relative to native peptide; for inhibitory potency towards human NEP (in words): screening, 50 μM final concentration
T2 construct: devoid of their respective N-terminal cytosol and transmembrane segment; purchased R&D Systems
T2 sequence (P08473 52-750 limits assumed): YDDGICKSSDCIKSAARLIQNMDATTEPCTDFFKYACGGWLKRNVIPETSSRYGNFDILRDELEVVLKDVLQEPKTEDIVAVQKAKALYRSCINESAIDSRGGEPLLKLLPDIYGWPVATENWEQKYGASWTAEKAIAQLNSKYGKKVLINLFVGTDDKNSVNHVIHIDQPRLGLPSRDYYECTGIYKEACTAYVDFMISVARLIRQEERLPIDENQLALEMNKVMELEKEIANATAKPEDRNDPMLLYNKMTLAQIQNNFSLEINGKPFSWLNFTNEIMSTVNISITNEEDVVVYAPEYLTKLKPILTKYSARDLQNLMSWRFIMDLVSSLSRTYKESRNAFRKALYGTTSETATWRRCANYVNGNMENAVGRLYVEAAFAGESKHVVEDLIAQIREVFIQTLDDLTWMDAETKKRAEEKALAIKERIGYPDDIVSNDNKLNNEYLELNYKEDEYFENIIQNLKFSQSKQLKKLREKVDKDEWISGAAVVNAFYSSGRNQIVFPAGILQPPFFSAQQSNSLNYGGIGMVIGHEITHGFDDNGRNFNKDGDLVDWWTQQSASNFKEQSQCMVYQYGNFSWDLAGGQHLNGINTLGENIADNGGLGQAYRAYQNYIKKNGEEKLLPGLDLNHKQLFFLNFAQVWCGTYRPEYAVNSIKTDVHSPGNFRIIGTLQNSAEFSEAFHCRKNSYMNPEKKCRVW
Description: as §1
([…] successive measures) by using a fluorimeter microplate reader (monochromator Infinite 200-Tecan) at 320 nm and 420 nm excitation and emission wavelengths, respectively.
Using black half-area 96 well microplate, the standard reaction consisted of enzyme (2.5 ng) in 100 mM Tris-HCl pH 6.5 containing 50 mM NaCl (100 μl final volume). The substrate (4 μM final concentration) was added after preincubation for 10 min and the kinetics of appearance of the fluorescent signal (RFU) was directly analyzed for 40 min at 28° C. (2.3 min-interval successive measures) by using the fluorimeter reader at 320 nm excitation and 420 nm emission wavelengths.
In addition, the intramolecularly quenched fluorogenic peptide, Mca-BK2 (10 μM), was submitted to hydrolysis by 5 ng rhNEP under the same experimental conditions as those described behind.
as §2

[1] = biological target: T3, membrane-bound human NEP expressed by LNCaP epithelial cells (Homo sapiens, UniProt P08473); experiment: Substance P cleavage by membrane-bound hNEP (human cell membranes); format: biochemical; details: fold increase, same test
T3 construct: endogenous in cells; host or cells: LNCaP epithelial cells (membranes)
T3 sequence (P08473 whole entry): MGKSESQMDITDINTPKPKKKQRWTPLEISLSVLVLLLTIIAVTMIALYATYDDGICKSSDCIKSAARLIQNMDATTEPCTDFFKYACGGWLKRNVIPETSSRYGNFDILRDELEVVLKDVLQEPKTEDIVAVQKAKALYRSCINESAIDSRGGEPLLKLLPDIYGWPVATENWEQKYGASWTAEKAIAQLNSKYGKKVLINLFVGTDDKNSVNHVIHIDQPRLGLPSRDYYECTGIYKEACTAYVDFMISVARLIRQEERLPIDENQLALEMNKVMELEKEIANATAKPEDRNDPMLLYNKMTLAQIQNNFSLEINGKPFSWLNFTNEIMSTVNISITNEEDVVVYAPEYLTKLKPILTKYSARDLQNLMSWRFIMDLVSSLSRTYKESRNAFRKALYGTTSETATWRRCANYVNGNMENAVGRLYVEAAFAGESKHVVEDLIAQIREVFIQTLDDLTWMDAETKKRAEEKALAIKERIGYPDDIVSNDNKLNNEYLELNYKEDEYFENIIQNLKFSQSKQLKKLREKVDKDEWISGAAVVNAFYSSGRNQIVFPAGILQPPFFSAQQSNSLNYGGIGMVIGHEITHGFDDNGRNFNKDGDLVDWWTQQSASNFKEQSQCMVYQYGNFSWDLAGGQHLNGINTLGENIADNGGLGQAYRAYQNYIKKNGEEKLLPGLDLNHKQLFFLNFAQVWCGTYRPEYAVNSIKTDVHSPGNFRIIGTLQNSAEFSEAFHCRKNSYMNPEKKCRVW

[2] = biological target: T4, Recombinant human AP-N (aminopeptidase N, EC 3.4.11.2), devoid of its N-terminal cytosol and transmembrane … (human, UniProt P15144 33-967); experiment: cell-based or functional assay
T4 sequence (P15144 33-967): as the sequence (P15144 33-967 limits assumed) above

[3] = biological target: Recombinant human NEP (neutral endopeptidase, EC 3.4.24.11), devoid of its N-terminal cytosol and … (human, UniProt P08473 52-750); experiment: cell-based or functional assay
Sequence of Recombinant human NEP (neutral endopeptidase, EC 3.4.24.11), devoid of its N-terminal cytosol and … (P08473 52-750): as the sequence (P08473 52-750 limits assumed) above

[4] = biological target: T4, Recombinant human AP-N (aminopeptidase …); experiment: cell-based or functional assay; remark: listed apart in the source

inhibitory potency towards hAP-N as compared to Opiorphin-QRFSR native peptide (in words) (recombinant human AP-N): equivalent inhibitory potency | inhibitory preference / dual inhibition, human NEP versus human AP-N (in words) (human NEP): inhibitory preference for human AP-N | inhibitory potency towards hNEP as compared to Opiorphin-QRFSR native peptide (in words) (human NEP): weak inhibitory potency | inhibitory potency towards human NEP (in words) (human NEP): weak inhibitory potency
Molecule: QRFPR

inhibitory potency towards hNEP as compared to Opiorphin-QRFSR native peptide (in words) (human NEP): equivalent inhibitory potency
Molecule: QRFSK (H-QRFSK-OH)

inhibitory potency towards hNEP as compared to Opiorphin-QRFSR native peptide (in words) (human NEP): light reduction in inhibitory potency
Molecule: QKFSR

increase inhibitory potency towards hNEP-Endo and CarboxyDi-peptidase activities compared to CQRFSR monomer peptide (human NEP; fold increase): at least 2 fold
Molecule: N=C(N)NCCC[C@H](NC(=O)[C@H](CO)NC(=O)[C@H](Cc1ccccc1)NC(=O)[C@H](CCCNC(=N)N)NC(=O)[C@H](CCC(N)=O)NC(=O)[C@@H](N)CSSC[C@H](N)C(=O)N[C@@H](CCC(N)=O)C(=O)N[C@@H](CCCNC(=N)N)C(=O)N[C@@H](Cc1ccccc1)C(=O)N[C@@H](CO)C(=O)N[C@@H](CCCNC(=N)N)C(=O)O)C(=O)O [[CQRFSR]2]

inhibitory potency towards hAP-N as compared to Opiorphin-QRFSR native peptide (in words) (recombinant human AP-N): equivalent inhibitory potency | inhibitory preference / dual inhibition, human NEP versus human AP-N (in words) (human NEP): inhibitory preference for human AP-N | inhibitory potency towards hNEP as compared to Opiorphin-QRFSR native peptide (in words) (human NEP): weak inhibitory potency | inhibitory potency towards human NEP (in words) (human NEP): weak inhibitory potency
Molecule: QHNPR

inhibitory potency towards hAP-N as compared to Opiorphin-QRFSR native peptide (in words) (recombinant human AP-N): equivalent inhibitory potency | inhibitory preference / dual inhibition, human NEP versus human AP-N (in words) (human NEP): inhibitory preference for human AP-N | inhibitory potency towards hNEP as compared to Opiorphin-QRFSR native peptide (in words) (human NEP): weak inhibitory potency | inhibitory potency towards human NEP (in words) (human NEP): weak inhibitory potency
Molecule: QRGPR (H-QRGPR-OH)

fold decrease in inhibitory potency compared to Opiorphin-QRFSR native peptide [4]: 10 fold
Molecule: H-QRFSK-OH [NH2-QRFSK-COOH]

fold decrease in inhibitory potency compared to Opiorphin-QRFSR native peptide [4]: > 10 fold
Molecule: H-QKFSR-OH [NH2-QKFSR-COOH]

Continued, molecule first:

Molecule: CCCCCCCC(=O)OC[C@H](NC(=O)[C@H](Cc1ccccc1)NC(=O)[C@H](CCCNC(=N)N)NC(=O)[C@H](CCC(N)=O)NC(=O)CCCCCCNC(=O)[C@@H](N)CS)C(=O)N[C@@H](CCCNC(=N)N)C(=O)O [C-[PE6]-QRFS[O-C8]R, C—(—HN—(CH2)6—CO—)-QRF—S(O-octanoyl)-R]
increase inhibitory potency compared to Opiorphin native peptide, Substance P test [1]: at least 5 fold

Molecule: N=C(N)NCCC[C@H](NC(=O)[C@H](CO)NC(=O)[C@H](Cc1ccccc1)NC(=O)[C@H](CCCNC(=N)N)NC(=O)[C@H](CCC(N)=O)NC(=O)[C@@H](N)CS)C(=O)O [CQRFSR]
reinforced inhibitory potency towards hNEP compared to QRFSR native peptide (human NEP; fold increase): 5 fold | inhibitory preference / dual inhibition, human NEP versus human AP-N (in words) (human NEP): potent dual inhibitors

Molecule: N=C(N)NCCC[C@H](NC(=O)[C@H](CO)NC(=O)[C@H](Cc1ccccc1)NC(=O)[C@H](CCCNC(=N)N)NC(=O)[C@H](CCC(N)=O)NC(=O)CCCCCCCCCCCCNC(=O)[C@@H](N)Cc1ccc(O)cc1)C(=O)O [Y-[PE12]QRFSR, Y—(—HN—(CH2)12—CO—)-QRFSR]
inhibitory preference / dual inhibition, human NEP versus human AP-N (in words) (human NEP; listed as NH2-Y(PE12)QRFSR—COOH): potent dual inhibitors | inhibitory preference / dual inhibition, human NEP versus human AP-N (in words) (human NEP; listed as NH2-Y—(C12-polyethylene)QRFSR—COOH): inhibitory preference for human NEP endopeptidase activity | inhibitory preference / dual inhibition, human NEP versus human AP-N (in words) (human NEP; listed as Y—(C12-polyethylene)QRFSR): inhibitory preference for human NEP endopeptidase activity

Molecule: dR-dS-dF-dR-dQ ([dR][dS][dF][dR][dQ]) [NH2-dRdSdFdRdQ-COOH]
inhibitory potency towards human AP-N (in words) (recombinant human AP-N; screening, 50 μM final concentration): did not display significant inhibitory activity | inhibitory preference / dual inhibition, human NEP versus human AP-N (in words) (human NEP): preference for AP-N activity | inhibitory potency towards human NEP (in words) (human NEP): did not display significant inhibitory activity

Molecule: H-C[12Ado]QRFSR-OH [NH2-C-(C12-polyethylene)QRFSR-COOH]
IC50, µM towards hAP-N (Ala-AMC cleavage) [2]: 0.8 µM

Molecule: H-C[Ahx]QRFSR-OH [NH2-C-(C6-polyethylene)QRFSR-COOH]
IC50, µM towards hNEP-Endopeptidase (Abz-dR-G-L-EDDnp cleavage) [3]: 40 µM | IC50, µM towards hAP-N (Ala-AMC cleavage) [2]: 0.8 µM
